Values quoted from earlier work in paper PMC3877210.
pKd: −log10 of the molar value.

Tests used:
[1] = biological target: integrin β3 cytoplasmic tail (Homo sapiens) (UniProt P05106); experiment: SPR
[2] = biological target: integrin β2 cytoplasmic tail (Homo sapiens) (UniProt P05107); experiment: SPR
[3] = biological target: integrin β1 cytoplasmic tail (Homo sapiens) (UniProt P05556); experiment: pulldown
[4] = biological target: integrin β3 cytoplasmic tail (Homo sapiens) (UniProt P05106); experiment: NMR

Chain of UniProt P05106 (P05106 742-788): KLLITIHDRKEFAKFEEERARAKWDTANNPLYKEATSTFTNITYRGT
Chain of UniProt P05107 (P05107 724-769): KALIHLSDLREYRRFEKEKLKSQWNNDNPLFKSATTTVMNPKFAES
Chain of UniProt P05556 (P05556 752-798): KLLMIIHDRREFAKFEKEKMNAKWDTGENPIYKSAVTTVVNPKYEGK

pKd [1] | pKd [2] | pKd [3] | pKd [4] | Substance
7.04 | 7.90 | 7.17 |  | talin F2-F3 F2-F3 (from UniProt Q9Y490)
 |  |  | 3.56 | talin F3 F3 (from UniProt Q9Y490)
